Assay results: article PMC2879511 (Nucleic Acids Research, 2010)
Values belong to the binder of their own block, whether it stands above or below them.

B5: 4-subunit middle module complex Med7/10/21/31-His6 (complex)
chain 1: MSNDPGNEVSSLYPPPPPYVKFFTQSNLEKLPKYKEKKAASAKQTAPNNSNGGSEEEITCALDYLIPPPMPKNQQYRAFGSIWQVKDQLPDLESMGLTQLYKKSTENESTNYQYKIQELRKLLKSLLLNYLELIGVLSINPDMYERKVENIRTILVNIHHLLNEYRPHQSRESLIMLLEEQLEYKRGEIREIEQVCKQVHDKLTSIQDTLRTGSQSPPSSSQ
chain 2: MNGNSTNNEQLQQELATTQDQVASIIESFVELGVSIYDFPGTPEATKGMITNLQRNVDRLYKLNVRSNDPQSSLSKVDIPLEVVQYIEDGRNPDIYTREFVEAIRRSNQYQRGKMHGLKQLRDSLADKIVDEFPELKEPVEDIIKRTSPIDNVSNTH
chain 3: MTDRLTQLQICLDQMTEQFCATLNYIDKNHGFERLTVNEPQMSDKHATVVPPEEFSNTIDELSTDIILKTRQINKLIDSLPGVDVSAEEQLRKIDMLQKKLVEVEDEKIEAIKKKEKLLRHVDSLIEDFVDGIANSKKST
chain 4: […]
B8: Med7 (recombinant) (natural protein)
chain: MSNDPGNEVSSLYPPPPPYVKFFTQSNLEKLPKYKEKKAASAKQTAPNNSNGGSEEEITCALDYLIPPPMPKNQQYRAFGSIWQVKDQLPDLESMGLTQLYKKSTENESTNYQYKIQELRKLLKSLLLNYLELIGVLSINPDMYERKVENIRTILVNIHHLLNEYRPHQSRESLIMLLEEQLEYKRGEIREIEQVCKQVHDKLTSIQDTLRTGSQSPPSSSQ

Legend:
[1] = molecular target: 6-subunit complex Med4/7/9/10/21/31 of the coexpressed 7-subunit middle module (S. cerevisiae, UniProt Q12343;Q08278;P33308;Q06213;P47822;P38633); assay: native MS
Med4 (recombinant) [2] = molecular target: T1, Med4 (recombinant) (S. cerevisiae, UniProt Q12343 1-284); assay: copurification after coexpression
T1 sequence: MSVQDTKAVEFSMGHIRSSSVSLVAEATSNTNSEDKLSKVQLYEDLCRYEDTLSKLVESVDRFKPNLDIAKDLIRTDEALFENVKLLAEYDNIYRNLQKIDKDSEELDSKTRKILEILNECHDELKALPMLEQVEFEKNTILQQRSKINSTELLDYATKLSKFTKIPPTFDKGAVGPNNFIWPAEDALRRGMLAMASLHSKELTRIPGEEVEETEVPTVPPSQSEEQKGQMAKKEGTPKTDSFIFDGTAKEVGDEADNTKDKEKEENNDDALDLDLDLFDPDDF

[3] = molecular target: B5; assay: native MS
native MS = molecular target: the molecule itself; assay: native MS
Med7 (recombinant) = molecular target: B8; assay: native MS
Med4 (recombinant) [4] = molecular target: T1, Med4 (recombinant); assay: native MS

stoichiometry N [1]: 1
B1: StrepII-tagged Med1 (natural protein)
chain: MVEGDSYVETLDSMIELFKDYKPGSITLENITRLCQTLGLESFTEELSNELSRLSTASKIIVIDVDYNKKQDRIQDVKLVLASNFDNFDYFNQRDGEHEKSNILLNSLTKYPDLKAFHNNLKFLYLLDAYSHIESDSTSHNNGSSDKSLDSSNASFNNQGKLDLFKYFTELSHYIRQCFQDNCCDFKVRTNLNDKFGIYILTQGINGKEVPLAKIYLEENKSDSQYRFYEYIYSQETKSWINESAENFSNGISLVMEIVANAKESNYTDLIWFPEDFISPELIIDKVTCSSNSSSSPPIIDLFSNNNYNSRIQLMNDFTTKLINIKKFDISNDNLDLISEILKWVQWSRIVLQNVFKLVSTPSSNSNSSELEPDYQAPFSTSTKDKNSSTSNTEPIPRSNRHGSVVEASRRRRSSTNKSKRPSITEAMMLKEEGLQQFNLHEILSEPAIEEENGDSIKEHSTTMDGANDLGFTASVSNQENAGTDIVMEDHGVLQGTSQNYGTATADDADIEMKDVSSKPSKPESSVLQLIVSEDHIILDTISECNLYDDVKCWSKFIEKFQDIVS

binding result (Med4 (recombinant) [2]): binds
B2: Med9 (recombinant) (natural protein)
chain: MNLQNNVLNQIHQILLPTNPTLDKPNAEATKEEFSSAENRDEKDYLTNQQPKNLSTPSTSSNGEFIPHIFYSLHQIRKDPNNLSNQLETLTGSIRHRLKLCKSLISENEDTKDLLSKSPSEWQDIIHQREQELQIKRDVLDDLYRKLQR

stoichiometry N [3]: 1
B3: Med4/9 heterodimer (complex)
chain 1: MSVQDTKAVEFSMGHIRSSSVSLVAEATSNTNSEDKLSKVQLYEDLCRYEDTLSKLVESVDRFKPNLDIAKDLIRTDEALFENVKLLAEYDNIYRNLQKIDKDSEELDSKTRKILEILNECHDELKALPMLEQVEFEKNTILQQRSKINSTELLDYATKLSKFTKIPPTFDKGAVGPNNFIWPAEDALRRGMLAMASLHSKELTRIPGEEVEETEVPTVPPSQSEEQKGQMAKKEGTPKTDSFIFDGTAKEVGDEADNTKDKEKEENNDDALDLDLDLFDPDDF
chain 2: MNLQNNVLNQIHQILLPTNPTLDKPNAEATKEEFSSAENRDEKDYLTNQQPKNLSTPSTSSNGEFIPHIFYSLHQIRKDPNNLSNQLETLTGSIRHRLKLCKSLISENEDTKDLLSKSPSEWQDIIHQREQELQIKRDVLDDLYRKLQR

binding result (Med7 (recombinant)): binds
B6: Med21 (recombinant) (natural protein)
chain: MTDRLTQLQICLDQMTEQFCATLNYIDKNHGFERLTVNEPQMSDKHATVVPPEEFSNTIDELSTDIILKTRQINKLIDSLPGVDVSAEEQLRKIDMLQKKLVEVEDEKIEAIKKKEKLLRHVDSLIEDFVDGIANSKKST

The next lines start with the binder.

B4: 6-subunit middle module complex Med4/7/9/10/21/31 (complex)
chain 1: MSVQDTKAVEFSMGHIRSSSVSLVAEATSNTNSEDKLSKVQLYEDLCRYEDTLSKLVESVDRFKPNLDIAKDLIRTDEALFENVKLLAEYDNIYRNLQKIDKDSEELDSKTRKILEILNECHDELKALPMLEQVEFEKNTILQQRSKINSTELLDYATKLSKFTKIPPTFDKGAVGPNNFIWPAEDALRRGMLAMASLHSKELTRIPGEEVEETEVPTVPPSQSEEQKGQMAKKEGTPKTDSFIFDGTAKEVGDEADNTKDKEKEENNDDALDLDLDLFDPDDF
chain 2: MSNDPGNEVSSLYPPPPPYVKFFTQSNLEKLPKYKEKKAASAKQTAPNNSNGGSEEEITCALDYLIPPPMPKNQQYRAFGSIWQVKDQLPDLESMGLTQLYKKSTENESTNYQYKIQELRKLLKSLLLNYLELIGVLSINPDMYERKVENIRTILVNIHHLLNEYRPHQSRESLIMLLEEQLEYKRGEIREIEQVCKQVHDKLTSIQDTLRTGSQSPPSSSQ
chain 3: MNLQNNVLNQIHQILLPTNPTLDKPNAEATKEEFSSAENRDEKDYLTNQQPKNLSTPSTSSNGEFIPHIFYSLHQIRKDPNNLSNQLETLTGSIRHRLKLCKSLISENEDTKDLLSKSPSEWQDIIHQREQELQIKRDVLDDLYRKLQR
chain 4: MNGNSTNNEQLQQELATTQDQVASIIESFVELGVSIYDFPGTPEATKGMITNLQRNVDRLYKLNVRSNDPQSSLSKVDIPLEVVQYIEDGRNPDIYTREFVEAIRRSNQYQRGKMHGLKQLRDSLADKIVDEFPELKEPVEDIIKRTSPIDNVSNTH
chain 5: MTDRLTQLQICLDQMTEQFCATLNYIDKNHGFERLTVNEPQMSDKHATVVPPEEFSNTIDELSTDIILKTRQINKLIDSLPGVDVSAEEQLRKIDMLQKKLVEVEDEKIEAIKKKEKLLRHVDSLIEDFVDGIANSKKST
chain 6: […]
stoichiometry N (native MS): 2

Binder: B5
stoichiometry N (native MS): 2

B7: Med10 (recombinant) (natural protein)
chain: MNGNSTNNEQLQQELATTQDQVASIIESFVELGVSIYDFPGTPEATKGMITNLQRNVDRLYKLNVRSNDPQSSLSKVDIPLEVVQYIEDGRNPDIYTREFVEAIRRSNQYQRGKMHGLKQLRDSLADKIVDEFPELKEPVEDIIKRTSPIDNVSNTH
binding result (Med7 (recombinant)): binds

Binder: B8
binding result (Med4 (recombinant) [4]): binds
